Reference: US20100064383A1

Target: bHLH protein EGL3 from Arabidopsis (Arabidopsis) (UniProt Q9CAD0)
Experiment: cell-based or functional assay

Sequence of UniProt Q9CAD0 (Q9CAD0 whole entry): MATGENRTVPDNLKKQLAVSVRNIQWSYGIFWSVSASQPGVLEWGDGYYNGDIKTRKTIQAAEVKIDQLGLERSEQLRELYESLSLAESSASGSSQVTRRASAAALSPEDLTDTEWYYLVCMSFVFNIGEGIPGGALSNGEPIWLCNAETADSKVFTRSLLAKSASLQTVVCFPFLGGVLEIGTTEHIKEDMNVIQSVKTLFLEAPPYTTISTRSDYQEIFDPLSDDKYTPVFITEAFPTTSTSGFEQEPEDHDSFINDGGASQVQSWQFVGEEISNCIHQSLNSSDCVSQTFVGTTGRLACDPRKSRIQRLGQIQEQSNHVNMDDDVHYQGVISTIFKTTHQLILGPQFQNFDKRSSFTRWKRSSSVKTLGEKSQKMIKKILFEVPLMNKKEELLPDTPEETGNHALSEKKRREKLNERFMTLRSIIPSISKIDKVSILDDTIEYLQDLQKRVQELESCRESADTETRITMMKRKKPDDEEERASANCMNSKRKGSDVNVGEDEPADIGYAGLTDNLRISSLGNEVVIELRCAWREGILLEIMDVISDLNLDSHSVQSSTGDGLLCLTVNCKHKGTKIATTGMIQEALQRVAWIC

induction of the VvLDOX promoter, dual-luciferase transient assay in grape cells (fold over control without MYB factor): 125 fold
Substance: VvMYBPA1
